In paper PMC5700061:

Key:
[1] = target: Furin-resistant mouse proBrain-Derived Neurotrophic Factor (proBDNF) (mouse) (UniProt P21237); test: SPR; MX96 (IBIS); NGF, proNGF and proBDNF amine-coupled to a P-COOH SensEye sensor, s-sortilin flowed over as analyte; 25 mM MES pH 5.0, 150 mM NaCl, 0.005% Tween 20, 25 °C; equilibrium binding, 1:1 Langmuir model
[2] = target: Mouse Nerve Growth Factor (NGF) (mouse) (UniProt P01139); test: as above
[3] = target: Mouse sortilin luminal segment (s-sortilin), wild type, native glycans (mouse); test: SEC-MALS; Superdex 200 10/300 GL, 10 µl of 10 mg mL^-1 injected, 0.5 ml min^-1; 25 mM MES pH 5.0, 150 mM NaCl
[4] = target: Furin-resistant mouse proBrain-Derived Neurotrophic Factor (proBDNF) (mouse) (UniProt P21237); test: SPR; equilibrium binding, IBIS MX96; NGF, proNGF and proBDNF amine-coupled, s-sortilin as analyte; 25 mM HEPES pH 7.4, 150 mM NaCl, 0.005% Tween 20, 25 °C; 1:1 Langmuir model
[5] = target: Furin-resistant mouse proBrain-Derived Neurotrophic Factor (proBDNF) (mouse) (UniProt P21237); test: SPR; equilibrium binding, IBIS MX96; NGF, proNGF and proBDNF amine-coupled, s-sortilin as analyte; 25 mM MES pH 5.0, 150 mM NaCl, 0.005% Tween 20, 25 °C; 1:1 Langmuir model

Chain of Mouse Nerve Growth Factor (NGF) (mouse) (P01139 122-241): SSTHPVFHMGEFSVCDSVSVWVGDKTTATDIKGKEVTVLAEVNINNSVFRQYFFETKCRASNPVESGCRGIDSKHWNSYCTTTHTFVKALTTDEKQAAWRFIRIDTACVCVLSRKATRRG

## Mouse s-sortilin A464E, native glycans (domain or fragment)
[1]
  Kd: 2280 nM
[2]
  Kd: 730 nM

## Mouse sortilin luminal segment (s-sortilin), wild type, native glycans (domain or fragment)
[3]
  stoichiometry N: 2

## s-sortilin A464E (dimerization interface mutant of the mouse sortilin luminal segment) (domain or fragment)
[4]
  Kd: 400 nM
[5]
  fold reduction of binding at pH 5.0 against pH 7.4: 4 fold
